Test [1] has as its target T1, human B7H3 (CD276) on the cell surface (human, UniProt Q5ZPR3 29-534).
T1 construct: B7H3 on A375 and other B7H3-positive or transfected cells
T1 sequence: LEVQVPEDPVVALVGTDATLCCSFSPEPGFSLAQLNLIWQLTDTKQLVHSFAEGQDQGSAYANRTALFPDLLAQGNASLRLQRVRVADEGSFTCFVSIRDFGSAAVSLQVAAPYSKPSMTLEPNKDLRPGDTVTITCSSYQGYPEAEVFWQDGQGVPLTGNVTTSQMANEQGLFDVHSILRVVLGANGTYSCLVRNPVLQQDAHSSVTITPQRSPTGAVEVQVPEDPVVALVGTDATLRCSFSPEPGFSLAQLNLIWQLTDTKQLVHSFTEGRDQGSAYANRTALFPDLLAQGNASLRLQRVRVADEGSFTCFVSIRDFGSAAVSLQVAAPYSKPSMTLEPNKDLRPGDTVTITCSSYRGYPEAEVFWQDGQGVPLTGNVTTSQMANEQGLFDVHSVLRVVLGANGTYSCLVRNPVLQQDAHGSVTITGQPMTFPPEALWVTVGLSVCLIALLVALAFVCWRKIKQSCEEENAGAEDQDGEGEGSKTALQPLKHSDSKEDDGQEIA
Nature of the test: flow cytometry on A375 cells (B7H3+), anti-human Fc secondary. The procedure:
(§1) Binding of exemplary multispecific constructs containing an antigen-binding domain directed against B7H3 were assessed for binding to B7H3 positive A375 tumor cells or primary T-cells. The constructs were generated containing antigen-binding domain(s) that were either sdAbs or a FABs, and that were positioned either only N-terminal to the Fc or both N-terminal to the Fc and C-terminal to the anti-CD3 binding domain (see FIGS. 30A and 30C and Table E5). Among the various formats of constructs tested included: sdAb-Fc-dsFV-sdAb (cx3072, cx5952) sdAb-Fc-FV (cx6079), sdAb-Fc-dsFV (cs6080, cx6081), MAB-FV (cx5067) and MAB-dsFV (cx6083, cx6084), where the FV represents the anti-CD3 binding domain composed of VH and VL domain pairs and “ds” notes disulfide stabilized via an engineered interdomain disulfide bond.
(§2) Binding was assessed as described above via flow cytometry using a fluorophore-conjugated anti-human Fc secondary antibody. cx3072 bound to A375 cells with high affinity (FIG. 31A) but not to isolated T-cells (FIG. 31B). […] The B7H3 -targeting sdAb containing constructs (cx5952, cx6079, cx6080, and cx6081) bound to B7H3 positive cells with similar affinities (depicted in FIG. 31E), with cx5952 displaying higher maximal binding. cx6079, cx6080 and cx6081 contain two identical B7H3-targeting sdAbs, whereas cx5952, and cx3072 contain two distinct B7H3-targeting sdAb that bind different epitopes. The MAB-FV, cx5067, contains two identical B7H3-targeting FAB domains.
(In flow cytometry, cells or beads pass a laser one at a time.)

Test [2] deals with T2, CD3 on the surface of human T cells (human, UniProt P07766 23-207).
T2 construct: whole, on cells; Part of the CD3/TCR complex on cells; also called CD3 epsilon
T2 sequence (P07766 23-207): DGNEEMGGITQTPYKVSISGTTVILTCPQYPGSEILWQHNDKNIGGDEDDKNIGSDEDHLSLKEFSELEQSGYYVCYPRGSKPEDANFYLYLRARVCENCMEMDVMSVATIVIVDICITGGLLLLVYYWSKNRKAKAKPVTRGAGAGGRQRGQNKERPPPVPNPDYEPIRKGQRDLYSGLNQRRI
Nature of the test: flow cytometry on primary human T cells, anti-human Fc secondary. How it is done:
as §1, §2

B1: cx6081 (bispecific antibody)
chain 1: EVQLVESGGGEVQPGGSLRLSCAASGFSFSSNVMMWVRQAPGKGLEWVSTIYSSGTGTFYAESVKGRFTISRDNAKNTLYLQMSSLRPEDTAVYYCATSGPVRGWGPRSQGTLVTVKPPGGGGDKTHTCPPCPAPPVAGPSVFLFPPKPKDTLMISRTPEVTCVVVDVKHEDPEVKFNWYVDGVEVHNAKTKPREEEYNSTYRVVSVLTVLHQDWLNGKEYKCKVSNKALPAPIEKTISKAKGQPREPQVYTLPPSREEMTKNQVSLTCDVSGFYPSDIAVEWESDGQPENNYKTTPPVLDSDGSFFLYSKLTVDKSRWEQGDVFSCSVMHEALHNHYTQKSLSLSPGKGGGGSGGGGSGGGGSEVQLVESGGGLVQPGGSLRLSCAASGFTFNTYAMNWVRQAPGKCLEWVARIRSKYNNYATYYADSVKGRFTISRDDAKNTLYLQMSSLRAEDTAVYYCVRHGNFGNSYVSWFAYWGQGTLVTVKP
chain 2: EVQLVESGGGEVQPGGSLRLSCAASGFSFSSNVMMWVRQAPGKGLEWVSTIYSSGTGTFYAESVKGRFTISRDNAKNTLYLQMSSLRPEDTAVYYCATSGPVRGWGPRSQGTLVTVKPPGGGGDKTHTCPPCPAPPVAGPSVFLFPPKPKDTLMISRTPEVTCVVVDVKHEDPEVKFNWYVDGVEVHNAKTKPREEQYNSTYRVVSVLTVLHQDWLNGKEYKCKVSNKALPAPIEKTISKAKGQPREPQVYTLPPSREQMTKNQVKLTCLVKGFYPSDIAVEWESNGQPENNYKTTPPVLDSDGSFFLYSKLTVDKSRWQQGNVFSCSVMHEALHNHYTQKSLSLSPGKGGGGSGGGGSGGGGSQAVVTQEPSLTVSPGGTVTLTCGSSTGAVTTSNYANWVQQKPGQAFRGLIGGTNKRAPGVPARFSGSLLGGKAALTISGAQPEDEADYYCALWYSNHWVFGCGTKLEIK
notes: also called sdAb-Fc-dsFV
As to B1, the binding result in test [1] was “binds”; in test [2], “no binding”.

B2: cx5067 (bispecific antibody)
chain 1: EVQLVESGGGLVQPGGSLRLSCAASGFTFSSFGMHWVRQAPGKGLEWVAYISSDSSAIYYADTVKGRFTISRDNAKNSLYLQMNSLRDEDTAVYYCGRGRENIYYGSRLDYWGQGTTVTVSSASTKGPSVFPLAPSSKSTSGGTAALGCLVKDYFPEPVTVSWNSGALTSGVHTFPAVLQSSGLYSLSSVVTVPSSSLGTQTYICNVNHKPSNTKVDKKVEPKSCDKTHTCPPCPAPPVAGPSVFLFPPKPKDTLMISRTPEVTCVVVDVKHEDPEVKFNWYVDGVEVHNAKTKPREEEYNSTYRVVSVLTVLHQDWLNGKEYKCKVSNKALPAPIEKTISKAKGQPREPQVYTLPPSREEMTKNQVSLTCDVSGFYPSDIAVEWESDGQPENNYKTTPPVLDSDGSFFLYSKLTVDKSRWEQGDVFSCSVMHEALHNHYTQKSLSLSPGKGGGGSGGGGSGGGGSEVQLVESGGGLVQPGGSLRLSCAASGFTFSTYAMNWVRQAPGKGLEWVGRIRSKYNNYATYYADSVKGRFTISRDDSKNTLYLQMNSLRAEDTAVYYCVRHGNFGDSYVSWFAYWGQGTLVTVSS
chain 2: EVQLVESGGGLVQPGGSLRLSCAASGFTFSSFGMHWVRQAPGKGLEWVAYISSDSSAIYYADTVKGRFTISRDNAKNSLYLQMNSLRDEDTAVYYCGRGRENIYYGSRLDYWGQGTTVTVSSASTKGPSVFPLAPSSKSTSGGTAALGCLVKDYFPEPVTVSWNSGALTSGVHTFPAVLQSSGLYSLSSVVTVPSSSLGTQTYICNVNHKPSNTKVDKKVEPKSCDKTHTCPPCPAPPVAGPSVFLFPPKPKDTLMISRTPEVTCVVVDVKHEDPEVKFNWYVDGVEVHNAKTKPREEQYNSTYRVVSVLTVLHQDWLNGKEYKCKVSNKALPAPIEKTISKAKGQPREPQVYTLPPSREQMTKNQVKLTCLVKGFYPSDIAVEWESNGQPENNYKTTPPVLDSDGSFFLYSKLTVDKSRWQQGNVFSCSVMHEALHNHYTQKSLSLSPGKGGGGSGGGGSGGGGSQAVVTQEPSLTVSPGGTVTLTCGSSTGAVTTSNYANWVQQKPGKSPRGLIGGTNKRAPGVPARFSGSLLGGKAALTISGAQPEDEADYYCALWYSNHWVFGGGTKLTVL
light: DIQLTQSPSFLSASVGDRVTITCKASQNVDTNVAWYQQKPGKAPKALIYSASYRYSGVPSRFSGSGSGTDFTLTISSLQPEDFATYYCQQYNNYPFTFGQGTKLEIKRTVAAPSVFIFPPSDEQLKSGTASVVCLLNNFYPREAKVQWKVDNALQSGNSQESVTEQDSKDSTYSLSSTLTLSKADYEKHKVYACEVTHQGLSSPVTKSFNRGEC
notes: anti-CD3 Fv not disulfide-stabilized; also called MAB-FV
On to B2, for which the binding result in test [1] is given as “binds”; in test [2], “no binding”.

B3: cx6083 (bispecific antibody)
chain 1: EVQLVESGGGLVQPGGSLRLSCAASGFTFSSFGMHWVRQAPGKGLEWVAYISSDSSAIYYADTVKGRFTISRDNAKNSLYLQMNSLRDEDTAVYYCGRGRENIYYGSRLDYWGQGTTVTVSSASTKGPSVFPLAPSSKSTSGGTAALGCLVKDYFPEPVTVSWNSGALTSGVHTFPAVLQSSGLYSLSSVVTVPSSSLGTQTYICNVNHKPSNTKVDKKVEPKSCDKTHTCPPCPAPPVAGPSVFLFPPKPKDTLMISRTPEVTCVVVDVKHEDPEVKFNWYVDGVEVHNAKTKPREEEYNSTYRVVSVLTVLHQDWLNGKEYKCKVSNKALPAPIEKTISKAKGQPREPQVYTLPPSREEMTKNQVSLTCDVSGFYPSDIAVEWESDGQPENNYKTTPPVLDSDGSFFLYSKLTVDKSRWEQGDVFSCSVMHEALHNHYTQKSLSLSPGKGGGGSGGGGSGGGGSEVQLVESGGGLVQPGGSLRLSCAASGFTFSTYAMNWVRQAPGKCLEWVGRIRSKYNNYATYYADSVKGRFTISRDDSKNTLYLQMNSLRAEDTAVYYCVRHGNFGDSYVSWFAYWGQGTLVTVSS
chain 2: EVQLVESGGGLVQPGGSLRLSCAASGFTFSSFGMHWVRQAPGKGLEWVAYISSDSSAIYYADTVKGRFTISRDNAKNSLYLQMNSLRDEDTAVYYCGRGRENIYYGSRLDYWGQGTTVTVSSASTKGPSVFPLAPSSKSTSGGTAALGCLVKDYFPEPVTVSWNSGALTSGVHTFPAVLQSSGLYSLSSVVTVPSSSLGTQTYICNVNHKPSNTKVDKKVEPKSCDKTHTCPPCPAPPVAGPSVFLFPPKPKDTLMISRTPEVTCVVVDVKHEDPEVKFNWYVDGVEVHNAKTKPREEQYNSTYRVVSVLTVLHQDWLNGKEYKCKVSNKALPAPIEKTISKAKGQPREPQVYTLPPSREQMTKNQVKLTCLVKGFYPSDIAVEWESNGQPENNYKTTPPVLDSDGSFFLYSKLTVDKSRWQQGNVFSCSVMHEALHNHYTQKSLSLSPGKGGGGSGGGGSGGGGSQAVVTQEPSLTVSPGGTVTLTCGSSTGAVTTSNYANWVQQKPGKSPRGLIGGTNKRAPGVPARFSGSLLGGKAALTISGAQPEDEADYYCALWYSNHWVFGCGTKLTVL
light: DIQLTQSPSFLSASVGDRVTITCKASQNVDTNVAWYQQKPGKAPKALIYSASYRYSGVPSRFSGSGSGTDFTLTISSLQPEDFATYYCQQYNNYPFTFGQGTKLEIKRTVAAPSVFIFPPSDEQLKSGTASVVCLLNNFYPREAKVQWKVDNALQSGNSQESVTEQDSKDSTYSLSSTLTLSKADYEKHKVYACEVTHQGLSSPVTKSFNRGEC
notes: disulfide-stabilized anti-CD3 Fv; also called MAB-dsFV
B3: the values for the binding result in test [1] and in test [2] were “binds” and “no binding”, respectively.

The values above are taken from patent US20230124851A1 (INHIBRX LNC, published 2023).
